According to patent US20200188479A1 (INTARCIA THERAPEUTICS, published 2020):
Ends that are not written are not given here.

Target: fraction V human serum albumin (human, UniProt P02768 25-609)
Assay: cell-based or functional assay

fraction V human serum albumin, sequence (P02768 25-609 limits assumed): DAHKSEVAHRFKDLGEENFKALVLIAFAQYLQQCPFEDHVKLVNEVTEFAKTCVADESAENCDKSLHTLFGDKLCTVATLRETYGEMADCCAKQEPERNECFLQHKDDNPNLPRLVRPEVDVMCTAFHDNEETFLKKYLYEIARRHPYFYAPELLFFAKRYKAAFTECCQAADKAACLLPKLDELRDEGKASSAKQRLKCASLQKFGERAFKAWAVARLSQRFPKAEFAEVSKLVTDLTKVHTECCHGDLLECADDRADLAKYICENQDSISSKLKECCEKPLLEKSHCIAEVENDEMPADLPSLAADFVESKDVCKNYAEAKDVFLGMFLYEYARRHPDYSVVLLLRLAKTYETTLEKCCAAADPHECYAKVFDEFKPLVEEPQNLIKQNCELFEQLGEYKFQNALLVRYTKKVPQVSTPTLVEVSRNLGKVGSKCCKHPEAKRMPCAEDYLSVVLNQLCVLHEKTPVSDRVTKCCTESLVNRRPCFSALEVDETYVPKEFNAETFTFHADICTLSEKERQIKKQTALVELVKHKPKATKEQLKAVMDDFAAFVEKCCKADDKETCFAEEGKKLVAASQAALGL

B1: semaglutide (peptide)
peptide: HXEGTFTSDVSSYLEGQAAKEFIAWLVRGRG
modifications: Aib in position 8 (GLP-1 numbering); Lys carries N6-[N-(17-carboxy-1-oxoheptadecyl-L-c-glutamyl[2-(2-aminoethoxy)ethoxy]acetyl[2-(2-aminoethoxy)ethoxy]acetyl] residue (as printed in paragraph 217))
- fold decrease in potency shift in 4% vs 0.1% albumin (cAMP accumulation in hGLP1R-expressing CHO-K1 cells): 19.9 fold
- reduction in potency in 4% vs 0.1% albumin, relative to the effect observed with GLP-1[7-36]NH2: 36.8 fold

Binder: HAEGTFTSDVSSYLEGQAAKEFIAWLVKGR-NH2 [human GLP-1[7-36]NH2]
- albumin-mediated change in potency for activation of GLP-1 receptors at 4% HSA versus 0.1% HSA: 0.54 fold (×)
- potency shift in 4% vs 0.1% albumin (cAMP accumulation in hGLP1R-expressing CHO-K1 cells): 1.8 fold
